{"source": "paper PMC3433420", "key": {"[1]": {"target": "PLCG2 tandem SH2 domains (human)", "experiment": "peptide or protein array; SH2/PTB proteins spotted on aldehyde slides, rhodamine peptide titrated in buffer B (20 mM HEPES, 100 mM KCl, 0.1% Tween-20, 5 mM DTT, pH 7.8), 1 h at room temperature; replicate assays"}, "PIK3R3-C (Homo sapiens) [2]": {"target": "PIK3R3-C (Homo sapiens) (UniProt Q92569)", "settings": "cited from earlier work"}, "PLCG2-NC (Homo sapiens) [3]": {"target": "PLCG2-NC (Homo sapiens) (UniProt P16885)", "sequence (P16885 527-740)": "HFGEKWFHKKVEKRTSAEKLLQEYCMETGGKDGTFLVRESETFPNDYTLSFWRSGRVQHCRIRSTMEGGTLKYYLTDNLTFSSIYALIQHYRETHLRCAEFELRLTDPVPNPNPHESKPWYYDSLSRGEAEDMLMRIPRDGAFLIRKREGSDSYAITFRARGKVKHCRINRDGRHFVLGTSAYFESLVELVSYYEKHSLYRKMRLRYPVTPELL", "settings": "cited from earlier work"}, "PLCG1-N (Homo sapiens)": {"target": "PLCG1-N (Homo sapiens) (UniProt P19174)", "sequence (P19174 545-761)": "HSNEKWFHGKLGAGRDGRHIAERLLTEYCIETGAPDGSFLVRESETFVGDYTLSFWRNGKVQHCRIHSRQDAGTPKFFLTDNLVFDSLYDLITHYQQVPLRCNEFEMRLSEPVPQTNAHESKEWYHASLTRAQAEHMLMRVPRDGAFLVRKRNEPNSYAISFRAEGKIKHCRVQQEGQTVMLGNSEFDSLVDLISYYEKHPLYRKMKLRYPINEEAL", "settings": "cited from earlier work"}, "FGR (Homo sapiens)": {"target": "FGR (Homo sapiens) (UniProt P09769)", "settings": "cited from earlier work"}, "YES1 (Homo sapiens)": {"target": "YES1 (Homo sapiens) (UniProt P07947)", "sequence (P07947 153-260)": "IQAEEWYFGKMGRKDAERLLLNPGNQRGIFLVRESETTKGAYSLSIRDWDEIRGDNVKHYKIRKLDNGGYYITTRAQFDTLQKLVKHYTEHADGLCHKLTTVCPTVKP", "settings": "cited from earlier work"}, "SHD (Homo sapiens)": {"target": "SHD (Homo sapiens) (UniProt Q96IW2)", "sequence (Q96IW2 235-340)": "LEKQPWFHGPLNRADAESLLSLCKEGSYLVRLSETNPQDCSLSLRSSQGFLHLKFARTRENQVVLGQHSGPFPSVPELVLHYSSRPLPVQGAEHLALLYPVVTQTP", "settings": "cited from earlier work"}, "VAV3 (Homo sapiens)": {"target": "VAV3 (Homo sapiens) (UniProt Q9UKW4)", "sequence (Q9UKW4 667-771)": "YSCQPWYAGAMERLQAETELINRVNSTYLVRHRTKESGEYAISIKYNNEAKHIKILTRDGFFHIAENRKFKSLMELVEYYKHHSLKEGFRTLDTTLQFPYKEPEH", "settings": "cited from earlier work"}, "SYK-N (Homo sapiens)": {"target": "SYK-N (Homo sapiens) (UniProt P43405)", "settings": "cited from earlier work"}, "SYK-C (Homo sapiens)": {"target": "SYK-C (Homo sapiens) (UniProt P43405)", "settings": "cited from earlier work"}, "PIK3R3-C (Homo sapiens) [4]": {"target": "PIK3R3-C (Homo sapiens) (UniProt Q92569)", "settings": "cited from earlier work", "remark": "listed apart in the source"}, "SHC1 (Homo sapiens)": {"target": "SHC1 (Homo sapiens) (UniProt P29353)", "sequence (P29353 483-583)": "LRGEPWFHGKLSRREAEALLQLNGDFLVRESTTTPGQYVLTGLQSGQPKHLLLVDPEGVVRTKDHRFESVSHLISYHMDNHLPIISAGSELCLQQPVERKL", "settings": "cited from earlier work"}, "ITK (Homo sapiens)": {"target": "ITK (Homo sapiens) (UniProt Q08881)", "sequence (Q08881 234-343)": "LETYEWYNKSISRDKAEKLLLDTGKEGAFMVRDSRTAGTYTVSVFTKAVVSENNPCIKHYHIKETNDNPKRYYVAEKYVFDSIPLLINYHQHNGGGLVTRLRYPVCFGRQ", "settings": "cited from earlier work"}, "PIK3R2-NC (Homo sapiens)": {"target": "PIK3R2-NC (Homo sapiens) (UniProt O00459)", "sequence (O00459 325-721)": "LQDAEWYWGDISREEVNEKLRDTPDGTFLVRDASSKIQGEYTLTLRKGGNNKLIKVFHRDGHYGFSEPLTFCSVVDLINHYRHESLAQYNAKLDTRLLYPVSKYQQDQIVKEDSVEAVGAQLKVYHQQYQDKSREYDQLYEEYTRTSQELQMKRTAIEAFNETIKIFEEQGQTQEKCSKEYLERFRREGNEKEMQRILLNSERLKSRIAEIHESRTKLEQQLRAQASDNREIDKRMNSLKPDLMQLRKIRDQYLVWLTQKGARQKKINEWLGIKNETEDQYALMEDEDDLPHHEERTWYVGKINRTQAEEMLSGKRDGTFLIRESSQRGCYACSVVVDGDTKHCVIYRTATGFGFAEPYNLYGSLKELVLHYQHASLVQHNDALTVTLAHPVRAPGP", "settings": "cited from earlier work"}, "PIK3R3-N (Homo sapiens) [5]": {"target": "PIK3R3-N (Homo sapiens) (UniProt Q92569)", "settings": "cited from earlier work"}, "PIK3R1-C (Homo sapiens)": {"target": "PIK3R1-C (Homo sapiens) (UniProt P27986)", "sequence (P27986 328-723)": "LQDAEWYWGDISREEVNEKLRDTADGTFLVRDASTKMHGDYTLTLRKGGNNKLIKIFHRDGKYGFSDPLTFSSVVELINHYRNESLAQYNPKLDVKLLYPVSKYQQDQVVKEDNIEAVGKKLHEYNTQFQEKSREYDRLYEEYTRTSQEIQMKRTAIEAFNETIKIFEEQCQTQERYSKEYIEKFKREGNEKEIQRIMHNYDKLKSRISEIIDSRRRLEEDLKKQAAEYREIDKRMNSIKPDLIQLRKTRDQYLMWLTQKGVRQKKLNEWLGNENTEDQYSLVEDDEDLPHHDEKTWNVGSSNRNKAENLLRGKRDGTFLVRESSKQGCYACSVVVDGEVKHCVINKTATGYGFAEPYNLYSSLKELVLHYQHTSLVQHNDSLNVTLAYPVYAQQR", "settings": "cited from earlier work"}, "PIK3R2-N (Homo sapiens)": {"target": "PIK3R2-N (Homo sapiens) (UniProt O00459)", "sequence (O00459 325-721)": "as the sequence (O00459 325-721) above", "settings": "cited from earlier work"}, "VAV2 (Homo sapiens)": {"target": "VAV2 (Homo sapiens) (UniProt P52735)", "sequence (P52735 668-772)": "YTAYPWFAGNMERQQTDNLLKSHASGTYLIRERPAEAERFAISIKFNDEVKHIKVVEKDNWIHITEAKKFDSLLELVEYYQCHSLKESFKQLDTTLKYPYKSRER", "settings": "cited from earlier work"}, "PIK3R3-N (Homo sapiens) [6]": {"target": "PIK3R3-N (Homo sapiens) (UniProt Q92569)", "settings": "cited from earlier work", "remark": "listed apart in the source"}, "PTPN11-N (Homo sapiens)": {"target": "PTPN11-N (Homo sapiens) (UniProt Q06124)", "settings": "cited from earlier work"}, "PLCG2-NC (Homo sapiens) [7]": {"target": "PLCG2-NC (Homo sapiens) (UniProt P16885)", "settings": "cited from earlier work", "remark": "listed apart in the source"}, "PLCG1-NC (Homo sapiens)": {"target": "PLCG1-NC (Homo sapiens) (UniProt P19174)", "sequence (P19174 545-761)": "as the sequence (P19174 545-761) above", "settings": "cited from earlier work"}, "PIK3R3-NC (Homo sapiens)": {"target": "PIK3R3-NC (Homo sapiens) (UniProt Q92569)", "settings": "cited from earlier work"}, "SYK-NC (Homo sapiens) [8]": {"target": "SYK-NC (Homo sapiens) (UniProt P43405)", "settings": "cited from earlier work"}, "SYK-NC (Homo sapiens) [9]": {"target": "SYK-NC (Homo sapiens) (UniProt P43405)", "settings": "cited from earlier work", "remark": "listed apart in the source"}, "SOCS1 (Homo sapiens)": {"target": "SOCS1 (Homo sapiens) (UniProt O15524)", "sequence (O15524 74-179)": "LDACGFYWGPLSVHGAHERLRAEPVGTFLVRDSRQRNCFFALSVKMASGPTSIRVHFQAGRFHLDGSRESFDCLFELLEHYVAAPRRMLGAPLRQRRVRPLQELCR", "settings": "cited from earlier work"}, "NCK2 (Homo sapiens)": {"target": "NCK2 (Homo sapiens) (UniProt O43639)", "sequence (O43639 280-380)": "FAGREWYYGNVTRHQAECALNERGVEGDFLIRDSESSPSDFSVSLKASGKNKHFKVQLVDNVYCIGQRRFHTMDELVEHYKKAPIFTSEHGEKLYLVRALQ", "settings": "cited from earlier work"}, "TENC1 (Homo sapiens)": {"target": "TENC1 (Homo sapiens) (UniProt Q63HR2)", "sequence (Q63HR2 1135-1252)": "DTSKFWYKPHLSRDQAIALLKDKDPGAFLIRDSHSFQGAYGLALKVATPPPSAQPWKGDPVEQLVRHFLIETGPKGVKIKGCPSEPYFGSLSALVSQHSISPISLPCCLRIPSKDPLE", "settings": "cited from earlier work"}, "PLCG1-C (Homo sapiens)": {"target": "PLCG1-C (Homo sapiens) (UniProt P19174)", "sequence (P19174 545-761)": "as the sequence (P19174 545-761) above", "settings": "cited from earlier work"}, "CRKL (Homo sapiens)": {"target": "CRKL (Homo sapiens) (UniProt P46109)", "sequence (P46109 9-107)": "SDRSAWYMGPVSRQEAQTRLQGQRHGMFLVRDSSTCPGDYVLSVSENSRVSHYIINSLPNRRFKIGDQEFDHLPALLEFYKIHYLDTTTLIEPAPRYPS", "settings": "cited from earlier work"}}, "note": "“And” between values parts separate entries of the source, which are not always exact repeats. Identical values can stand only once. Like-named read-outs stand apart in the source and are kept apart here."}
{"substance": "ErbB4 pY1262 phosphopeptide, rhodamine-labelled, for protein microarrays", "values": [{"measurement": "Kd", "setting": "[1]", "value": "0.126 µM and 0.381 µM"}]}
{"substance": "…pYWDQDPPE", "values": [{"measurement": "apparent Kd (screen)", "setting": "PIK3R3-C (Homo sapiens) [2]", "value": 2, "unit": "µM"}, {"measurement": "apparent Kd (screen)", "setting": "PLCG2-NC (Homo sapiens) [3]", "value": 2, "unit": "µM"}, {"measurement": "apparent Kd (screen)", "setting": "PLCG1-N (Homo sapiens)", "value": 2, "unit": "µM"}, {"measurement": "apparent Kd (screen)", "setting": "FGR (Homo sapiens)", "value": 2, "unit": "µM"}, {"measurement": "apparent Kd (screen)", "setting": "YES1 (Homo sapiens)", "value": 2, "unit": "µM"}, {"measurement": "apparent Kd (screen)", "setting": "SHD (Homo sapiens)", "value": 2, "unit": "µM"}, {"measurement": "apparent Kd (screen)", "setting": "VAV3 (Homo sapiens)", "value": 1.12, "unit": "µM"}, {"measurement": "apparent Kd (screen)", "setting": "SYK-N (Homo sapiens)", "value": 0.203, "unit": "µM"}, {"measurement": "apparent Kd (screen)", "setting": "SYK-C (Homo sapiens)", "value": 1.97, "unit": "µM"}]}
{"substance": "…pYEEMRAFQ", "values": [{"measurement": "apparent Kd (screen)", "setting": "PIK3R3-C (Homo sapiens) [4]", "value": 0.012, "unit": "µM"}, {"measurement": "apparent Kd (screen)", "setting": "SHC1 (Homo sapiens)", "value": 0.999, "unit": "µM"}, {"measurement": "apparent Kd (screen)", "setting": "ITK (Homo sapiens)", "value": 0.499, "unit": "µM"}, {"measurement": "apparent Kd (screen)", "setting": "PIK3R2-NC (Homo sapiens)", "value": 0.086, "unit": "µM"}]}
{"substance": "…pYLIPQQGFd", "values": [{"measurement": "apparent Kd (screen)", "setting": "PIK3R3-N (Homo sapiens) [5]", "value": 0.722, "unit": "µM"}, {"measurement": "apparent Kd (screen)", "setting": "PIK3R1-C (Homo sapiens)", "value": 0.873, "unit": "µM"}, {"measurement": "apparent Kd (screen)", "setting": "PIK3R2-N (Homo sapiens)", "value": 0.425, "unit": "µM"}, {"measurement": "apparent Kd (screen)", "setting": "VAV2 (Homo sapiens)", "value": 2, "unit": "µM"}, {"measurement": "apparent Kd (screen)", "setting": "PIK3R3-N (Homo sapiens) [6]", "value": 0.47, "unit": "µM"}, {"measurement": "apparent Kd (screen)", "setting": "PTPN11-N (Homo sapiens)", "value": 0.379, "unit": "µM"}, {"measurement": "apparent Kd (screen)", "setting": "PLCG2-NC (Homo sapiens) [7]", "value": 2, "unit": "µM"}, {"measurement": "apparent Kd (screen)", "setting": "PLCG1-NC (Homo sapiens)", "value": 0.794, "unit": "µM"}, {"measurement": "apparent Kd (screen)", "setting": "PIK3R3-NC (Homo sapiens)", "value": 0.203, "unit": "µM"}, {"measurement": "apparent Kd (screen)", "setting": "SYK-NC (Homo sapiens) [8]", "value": 0.534, "unit": "µM"}, {"measurement": "apparent Kd (screen)", "setting": "SYK-NC (Homo sapiens) [9]", "value": 0.611, "unit": "µM"}]}
{"substance": "…pYLVPQQGF", "values": [{"measurement": "apparent Kd (screen)", "setting": "SOCS1 (Homo sapiens)", "value": 2, "unit": "µM"}, {"measurement": "apparent Kd (screen)", "setting": "NCK2 (Homo sapiens)", "value": 2, "unit": "µM"}, {"measurement": "apparent Kd (screen)", "setting": "TENC1 (Homo sapiens)", "value": 2, "unit": "µM"}, {"measurement": "apparent Kd (screen)", "setting": "PLCG1-C (Homo sapiens)", "value": 1.46, "unit": "µM"}, {"measurement": "apparent Kd (screen)", "setting": "CRKL (Homo sapiens)", "value": 2, "unit": "µM"}]}
